Measured values: patent publication US20240209100A1 (DIAGONAL THERAPEUTICS, published 2024)

T1: IL-18 receptor (IL-18Rα/IL-18Rβ) overexpressed on HEK-Blue IL-18 cells (Homo sapiens (Human), UniProt Q13478 19-541; O95256 20-599)
T1 sequence 1: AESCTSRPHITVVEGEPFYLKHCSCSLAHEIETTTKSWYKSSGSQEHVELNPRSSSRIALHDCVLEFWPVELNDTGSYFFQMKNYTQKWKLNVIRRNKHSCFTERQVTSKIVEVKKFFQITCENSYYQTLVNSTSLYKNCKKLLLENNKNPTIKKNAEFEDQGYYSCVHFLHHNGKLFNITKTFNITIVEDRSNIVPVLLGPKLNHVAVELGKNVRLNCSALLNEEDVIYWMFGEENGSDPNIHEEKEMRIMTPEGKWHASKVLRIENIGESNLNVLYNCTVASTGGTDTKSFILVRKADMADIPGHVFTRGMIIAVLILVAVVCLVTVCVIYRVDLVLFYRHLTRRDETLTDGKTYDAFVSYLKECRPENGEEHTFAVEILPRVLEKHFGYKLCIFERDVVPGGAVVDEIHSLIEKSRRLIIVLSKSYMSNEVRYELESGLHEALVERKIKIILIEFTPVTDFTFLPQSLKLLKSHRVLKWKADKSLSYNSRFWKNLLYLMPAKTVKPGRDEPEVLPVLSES
T1 sequence 2: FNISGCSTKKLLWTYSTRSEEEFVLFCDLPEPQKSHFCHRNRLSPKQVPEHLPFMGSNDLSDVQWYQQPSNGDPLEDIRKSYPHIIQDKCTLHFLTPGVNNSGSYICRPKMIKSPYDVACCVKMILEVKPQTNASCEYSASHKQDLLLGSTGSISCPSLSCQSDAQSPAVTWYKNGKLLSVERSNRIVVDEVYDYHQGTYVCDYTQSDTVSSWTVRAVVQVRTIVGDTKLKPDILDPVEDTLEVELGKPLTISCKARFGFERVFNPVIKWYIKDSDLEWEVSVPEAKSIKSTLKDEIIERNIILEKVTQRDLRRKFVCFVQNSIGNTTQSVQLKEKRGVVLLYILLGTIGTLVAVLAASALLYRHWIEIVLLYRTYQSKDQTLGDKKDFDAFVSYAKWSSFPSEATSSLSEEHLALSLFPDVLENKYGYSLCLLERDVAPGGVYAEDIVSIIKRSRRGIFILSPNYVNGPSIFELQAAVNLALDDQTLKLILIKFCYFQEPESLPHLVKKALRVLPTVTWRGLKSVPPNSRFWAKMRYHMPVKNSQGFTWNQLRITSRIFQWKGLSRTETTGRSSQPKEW


biological target: T1, IL-18 receptor (IL-18Rα/IL-18Rβ) …; assay: cell-based or functional assay

Row | Binder | HEK-Blue IL-18: Abs 405 [Abs] | HEK-Blue IL-18: Fold over Background [fold]
1 | DGL172 (bispecific antibody) heavy 1: QLQLVESGGGLVQAGGSLRLSCAASRSITFSHNVMGWYRQAPGKQRELVASIGSGGSTNYVDSVKGRATISRDNAKKTVYLQMNSLKPEDTAVYYCGVVVGVYRGSLGQGTQVTVSSDKGPSVFPLAPEPKSSQVQLQESGGGLVQAGGSLRLSCQASGSIATINGMRWWRQAPGKERELVATINSGGSSNYADSVKGRFTISRDNASHTVSLQMNSLKPEDTAVYYCNLYVYSQFPPFSVDDYWGQGARVTVSSDKTHTCPPCPAPEAAGGPSVFLFPPKPKDTLMISRTPEVTCVVVDVSHEDPEVKFNWYVDGVEVHNAKTKPREEQYNSTYRVVSVLTVLHQDWLNGKEYKCKVSNKALPAPIEKTISKAKGQPREPQVCTLPPSRDELTKNQVSLSCAVKGFYPSDIAVEWESNGQPENNYKTTPPVLDSDGSFFLVSKLTVDKSRWQQGNVFSCSVMHEALHNHYTQKSLSLSPG heavy 2: not shown | 1.02 | 8.5
2 | DGL168 (bispecific antibody) heavy 1: QVQLVESGGGLVQAGGSLRLSCAASGRTFSSYNMGWFRQAPGKERESVAAISWSGGSSYYADSVKGRFTISRDNAKPTVYLQMNSLKPEDTAVYYCAADRDSEEWDGSSWFFKSDYWGQGTQVTVSSGGGSQVQLVESGGGLVQTGGPLRLSCAASGGTFSRYTMGWFRQAPGKEREYVAAISWRGSSIYYADAVKGRFTISRDSAKSTVYLQMNNLNSDDTAVYYCAADRTDLPRNAGEYGYWGQGTQVTVSSDKTHTCPPCPAPEAAGGPSVFLFPPKPKDTLMISRTPEVTCVVVDVSHEDPEVKFNWYVDGVEVHNAKTKPREEQYNSTYRVVSVLTVLHQDWLNGKEYKCKVSNKALPAPIEKTISKAKGQPREPQVCTLPPSRDELTKNQVSLSCAVKGFYPSDIAVEWESNGQPENNYKTTPPVLDSDGSFFLVSKLTVDKSRWQQGNVFSCSVMHEALHNHYTQKSLSLSPG heavy 2: not shown | 0.62 | 5.1
3 | DGL171 (bispecific antibody) heavy 1: EVQLVESGGGLVQAGGSLRLSCAASGSISSRDTMGWYRQAPGKQREMVAVISSSGNTNYADSVLGRFTISRDNAKNTVDLQMNSLKPEDTAIYKCYAHRTYGVDYWGKGTLVTVSSDKGPSVFPLAPEPKSSQVQLVESGGGLVQAGGSLRLSCAASGRTFSSYTMGWFRQAPGKEREFVAAISWSAGRTYYADSVKGRFTISRDNAKNTVYLQMNSLKPEDTAVYFCAAEEAPDWAPIDCSGYGCLSLYDYWGQGTQVTVSSDKTHTCPPCPAPEAAGGPSVFLFPPKPKDTLMISRTPEVTCVVVDVSHEDPEVKFNWYVDGVEVHNAKTKPREEQYNSTYRVVSVLTVLHQDWLNGKEYKCKVSNKALPAPIEKTISKAKGQPREPQVCTLPPSRDELTKNQVSLSCAVKGFYPSDIAVEWESNGQPENNYKTTPPVLDSDGSFFLVSKLTVDKSRWQQGNVFSCSVMHEALHNHYTQKSLSLSPG heavy 2: not shown | 0.53 | 4.3
4 | DGL164 (bispecific antibody) heavy 1: QVQLVESGGGLVQAGGSLRLSCAASGRTFSSYTMGWFRQAPGKEREFVAAISWSAGRTYYADSVKGRFTISRDNAKNTVYLQMNSLKPEDTAVYFCAAEEAPDWAPIDCSGYGCLSLYDYWGQGTQVTVSSDKGPSVFPLAPEPKSSQVQLVESGGGLVQAGGSLRLSCAASQTGFNMNRMGWYRQAPGKQRELVATITGGGSTTYADSVKGRFDISRGNVENNLYLQMNSLKPEDTAVYYCNALLFGRDYWGQGTQVTVSSDKTHTCPPCPAPEAAGGPSVFLFPPKPKDTLMISRTPEVTCVVVDVSHEDPEVKFNWYVDGVEVHNAKTKPREEQYNSTYRVVSVLTVLHQDWLNGKEYKCKVSNKALPAPIEKTISKAKGQPREPQVCTLPPSRDELTKNQVSLSCAVKGFYPSDIAVEWESNGQPENNYKTTPPVLDSDGSFFLVSKLTVDKSRWQQGNVFSCSVMHEALHNHYTQKSLSLSPG heavy 2: not shown | 0.28 | 2.3
5 | DGL170 (bispecific antibody) heavy 1: QVQLVESGGGLVQAGGSLRLSCVASGTFFQIHVMGWYRQAPGKQRELVAFIINNGGTRYADSVKGRFTISRDYAKNTVYLQMNSLKPEDTAVYYCNTEGTYRGRYSTDNWGQGTQVTVSSDKGPSVFPLAPEPKSSQVQLVESGGGLVQAGGSLRLSCAASGRTFSKHAMGWFRQAPGKEREFVAAIDWSGGSTYYADSVKGRFTISRDNAKNTVYLQMDSLKPEDTAVYYCAADSYTDYAQLWLPELESEYDYWGQGTQVTVSSDKTHTCPPCPAPEAAGGPSVFLFPPKPKDTLMISRTPEVTCVVVDVSHEDPEVKFNWYVDGVEVHNAKTKPREEQYNSTYRVVSVLTVLHQDWLNGKEYKCKVSNKALPAPIEKTISKAKGQPREPQVCTLPPSRDELTKNQVSLSCAVKGFYPSDIAVEWESNGQPENNYKTTPPVLDSDGSFFLVSKLTVDKSRWQQGNVFSCSVMHEALHNHYTQKSLSLSPG heavy 2: not shown | 0.23 | 1.9

Further lines, results first:

Row | HEK-Blue IL-18: Abs 405 [Abs] | HEK-Blue IL-18: Fold over Background [fold] | Binder
6 | 0.22 | 1.8 | DGL169 (bispecific antibody) heavy 1: QVQLVESGGGLVQAGGSLRLSCAASGRTFSSYTMGWFRQAPGKEREFVAAISWSAGRTYYADSVKGRFTISRDNAKNTVYLQMNSLKPEDTAVYFCAAEEAPDWAPIDCSGYGCLSLYDYWGQGTQVTVSSGGGSQVQLVESGGGLVQAGGSLRLSCAASQTGFNMNRMGWYRQAPGKQRELVATITGGGSTTYADSVKGRFDISRGNVENNLYLQMNSLKPEDTAVYYCNALLFGRDYWGQGTQVTVSSDKTHTCPPCPAPEAAGGPSVFLFPPKPKDTLMISRTPEVTCVVVDVSHEDPEVKFNWYVDGVEVHNAKTKPREEQYNSTYRVVSVLTVLHQDWLNGKEYKCKVSNKALPAPIEKTISKAKGQPREPQVCTLPPSRDELTKNQVSLSCAVKGFYPSDIAVEWESNGQPENNYKTTPPVLDSDGSFFLVSKLTVDKSRWQQGNVFSCSVMHEALHNHYTQKSLSLSPG heavy 2: not shown
7 | 0.66 | 5.5 | DGL167 (bispecific antibody) heavy 1: QVQLVESGGGLVQAGGSLRLSCAASGRTFSKHAMGWFRQAPGKEREFVAAIDWSGGSTYYADSVKGRFTISRDNAKNTVYLQMDSLKPEDTAVYYCAADSYTDYAQLWLPELESEYDYWGQGTQVTVSSGGGSQVQLQESGGGLVQAGGSLKLSCQASGLTFKRNTMGWFRQAPGKEREFVAHFLWTGGETDYADAVKGRFTISRDNAKNTVYLQMNSLKPEDTAVYFCAANYAGYRIDGYQYWGQGTQVTVSSDKTHTCPPCPAPEAAGGPSVFLFPPKPKDTLMISRTPEVTCVVVDVSHEDPEVKFNWYVDGVEVHNAKTKPREEQYNSTYRVVSVLTVLHQDWLNGKEYKCKVSNKALPAPIEKTISKAKGQPREPQVCTLPPSRDELTKNQVSLSCAVKGFYPSDIAVEWESNGQPENNYKTTPPVLDSDGSFFLVSKLTVDKSRWQQGNVFSCSVMHEALHNHYTQKSLSLSPG heavy 2: not shown
8 | 0.19 | 1.6 | DGL165 (bispecific antibody) heavy 1: QVQLVESGGGLVQAGGSLRLSCAASGRTFSSYTMGWFRQAPGKEREFVAAISWSAGRTYYADSVKGRFTISRDNAKNTVYLQMNSLKPEDTAVYFCAAEEAPDWAPIDCSGYGCLSLYDYWGQGTQVTVSSGGGSEVQLVESGGGLVQAGGSLRLSCAASGRTFRNYHMGWFRQAPGQEREFVAAISSSGGKTSYPDSVNGRFTISRDNAKNTVYLQMNNLKVEDTAVYYCAADPRYWVAAGGSEPENVEVWGQGTLVTVSSDKTHTCPPCPAPEAAGGPSVFLFPPKPKDTLMISRTPEVTCVVVDVSHEDPEVKFNWYVDGVEVHNAKTKPREEQYNSTYRVVSVLTVLHQDWLNGKEYKCKVSNKALPAPIEKTISKAKGQPREPQVCTLPPSRDELTKNQVSLSCAVKGFYPSDIAVEWESNGQPENNYKTTPPVLDSDGSFFLVSKLTVDKSRWQQGNVFSCSVMHEALHNHYTQKSLSLSPG heavy 2: not shown
9 | 0.12 | 1 | DGL166 (bispecific antibody) heavy 1: EVQLVESGGGLVQPGGSLRLSCAASGFFLDDYVLGWFRQAPGKPREGVSCISSRGRYLNYAETVKGRFTISRSNAKNTVYLQMNNLEPEDTAVYYCAAVRRVSEVCKLAEDDFASWGQGTQVTVSSGGGSQVQLVESGGGLVQAGDSLRLSCVASERTFSSYTMGWFRQAPGKEREFTAALSWWNGGISTAYADSVKGRFTISRDNAKNTVYLQMNSLKTEDTALYYCAAARDRMPRADEYDYWGQGTQVTVSSDKTHTCPPCPAPEAAGGPSVFLFPPKPKDTLMISRTPEVTCVVVDVSHEDPEVKFNWYVDGVEVHNAKTKPREEQYNSTYRVVSVLTVLHQDWLNGKEYKCKVSNKALPAPIEKTISKAKGQPREPQVCTLPPSRDELTKNQVSLSCAVKGFYPSDIAVEWESNGQPENNYKTTPPVLDSDGSFFLVSKLTVDKSRWQQGNVFSCSVMHEALHNHYTQKSLSLSPG heavy 2: not shown
